From paper PMC7739268 (Journal of molecular biology, 2016)
Read-outs that look alike come from different tables or passages of the source. Values belong to the molecule of their own block, whether it stands above or below them.

B4: BMPRII-Fc (Fc fusion, human, UniProt Q13873 27-136, looked up)
chain: SQNQERLCAFKDPYQQDLGIGESRISHENGTILCSKGSTCYGLWEKSKGDINLVKQGCWSHIGDPQECHYEECVVTTTPPSIQNGTYRFCCCSTDLCNVNFTENFPPPDT
B6: Recombinant human BMP-6 (ligand, UniProt P22004 375-513, looked up)
chain: SASSRRRQQSRNRSTQSQDVARVSSASDYNSSELKTACRKHELYVSFQDLGWQDWIIAPKGYAANYCDGECSFPLNAHMNATNHAIVQTLVHLMNPEYVPKPCCAPTKLNAISVLYFDDNSNVILKKYRNMVVRACGCH
B7: Recombinant human Activin B (ligand, UniProt P09529 293-407, looked up)
chain: GLECDGRTNLCCRQQFFIDFRLIGWNDWIIAPTGYYGNYCEGSCPAYLAGVPGSASSFHTAVVNQYRMRGLNPGTVNSCCIPTKLSTMSMLYFDDEYNIVKRDVPNMIVEECGCA

Assays:
[1] = biological target: short-form Cerberus, Fc free (CerS) (human) (UniProt O95813); experiment: cross-linking
[2] = biological target: Recombinant human Activin B (human) (UniProt P09529); experiment: SPR
[3] = biological target: Recombinant human Activin B (human) (UniProt P09529); experiment: SPR; remark: listed apart in the source
[4] = biological target: short-form Cerberus Fc fusion protein (CerS-Fc) (human) (UniProt O95813); experiment: SPR
BMPRII-Fc = biological target: B4; experiment: SPR
[5] = biological target: B7; experiment: SPR
Recombinant human BMP-6 [6] = biological target: B6; experiment: SPR
[7] = biological target: B7; experiment: SPR; remark: listed apart in the source
Recombinant human BMP-6 [8] = biological target: B6; experiment: SPR; remark: listed apart in the source
SEC = biological target: the molecule itself; experiment: SEC
[9] = biological target: B7; experiment: SPR; remark: listed apart in the source
Recombinant human BMP-6 [10] = biological target: B6; experiment: SPR; remark: listed apart in the source
[11] = biological target: T1, mutant Cerberus Fc fusion protein (mutCer-Fc) (human, UniProt O95813 18-267, Arg82Gly | Cys206Ala); experiment: SPR
T1 sequence (looked up): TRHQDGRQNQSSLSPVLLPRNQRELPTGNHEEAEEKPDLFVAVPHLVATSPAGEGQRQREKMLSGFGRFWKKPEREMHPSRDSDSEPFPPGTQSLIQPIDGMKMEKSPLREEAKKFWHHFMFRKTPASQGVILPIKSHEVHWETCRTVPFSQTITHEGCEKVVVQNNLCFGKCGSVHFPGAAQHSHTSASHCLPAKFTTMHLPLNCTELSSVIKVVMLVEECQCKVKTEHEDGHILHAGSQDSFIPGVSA

[12] = biological target: T2, wild-type Cerberus Fc fusion protein (wtCer-Fc) (human, UniProt O95813 18-267); experiment: SPR
T2 sequence (looked up): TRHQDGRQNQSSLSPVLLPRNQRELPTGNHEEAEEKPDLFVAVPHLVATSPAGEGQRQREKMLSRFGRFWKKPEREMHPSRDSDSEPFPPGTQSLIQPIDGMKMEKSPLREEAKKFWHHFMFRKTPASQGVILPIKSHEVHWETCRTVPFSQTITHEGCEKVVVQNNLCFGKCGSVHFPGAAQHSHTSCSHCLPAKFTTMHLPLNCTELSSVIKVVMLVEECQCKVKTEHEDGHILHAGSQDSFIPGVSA

B2: wild-type Cerberus, Fc free (wtCer) (natural protein, human, UniProt O95813 18-267, looked up)
chain: TRHQDGRQNQSSLSPVLLPRNQRELPTGNHEEAEEKPDLFVAVPHLVATSPAGEGQRQREKMLSRFGRFWKKPEREMHPSRDSDSEPFPPGTQSLIQPIDGMKMEKSPLREEAKKFWHHFMFRKTPASQGVILPIKSHEVHWETCRTVPFSQTITHEGCEKVVVQNNLCFGKCGSVHFPGAAQHSHTSCSHCLPAKFTTMHLPLNCTELSSVIKVVMLVEECQCKVKTEHEDGHILHAGSQDSFIPGVSA
IC50 [5]: 14.9 ± 4.2 nM | IC50 (Recombinant human BMP-6 [6]): 156 ± 9.2 nM | IC50 [7]: 26.2 ± 1.7 nM | IC50 (Recombinant human BMP-6 [8]): 319 ± 53.4 nM

Molecule: B4
binding result [9]: binds | binding result (Recombinant human BMP-6 [10]): binds

Molecule: B6
Kd [11]: 14.7 ± 3.6 nM | koff [11]: 0.001 s⁻¹ | kon [11]: 70000 M⁻¹ s⁻¹ | Kd [12]: 19.1 ± 2.5 nM | koff [12]: 0.0011 s⁻¹ | kon [12]: 55000 M⁻¹ s⁻¹

Molecule: B7
Kd [11]: 0.016 ± 0.003 nM | koff [11]: 3.1e-05 s⁻¹ | kon [11]: 2e+06 M⁻¹ s⁻¹ | Kd [12]: 0.096 ± 0.01 nM | koff [12]: 0.00022 s⁻¹ | kon [12]: 2.3e+06 M⁻¹ s⁻¹

Second part, led by results:

stoichiometry N [1]: 2 | IC50 [2]: 261 nM | percent reduction of Activin B binding to ActRIIA at 50 nM [2]: 10% | IC50 [3]: 28.4 nM
Molecule: short-form Cerberus, Fc free (CerS) (from UniProt O95813 18-267) (domain or fragment)

Kd [4]: 15.6 nM | koff [4]: 0.0021 s⁻¹ | kon [4]: 140000 M⁻¹ s⁻¹
Molecule: Recombinant human BMP-7 (from UniProt P18075 293-431) (ligand)

Kd [4]: 15.2 nM | koff [4]: 0.0012 s⁻¹
Molecule: Recombinant human BMP-6 (from UniProt P22004 375-513) (ligand)

binding result (BMPRII-Fc): binds
B1: Recombinant human Nodal (ligand, UniProt Q96S42 238-347, looked up)
chain: HHLPDRSQLCRKVKFQVDFNLIGWGSWIIYPKQYNAYRCEGECPNPVGEEFHPTNHAYIQSLLKRYQPHRVPSTCCAPVKTKPLSMLYVDNGRVLLDHHKDMIVEECGCL

IC50 [5]: 7.4 ± 1.1 nM | IC50 (Recombinant human BMP-6 [6]): 48.3 ± 3.5 nM | IC50 [7]: 40.1 ± 2.5 nM | IC50 (Recombinant human BMP-6 [8]): 350 ± 96.1 nM
B3: mutant Cerberus, Fc free (mutCer) (natural protein, human, UniProt O95813 18-267, looked up)
chain: TRHQDGRQNQSSLSPVLLPRNQRELPTGNHEEAEEKPDLFVAVPHLVATSPAGEGQRQREKMLSGFGRFWKKPEREMHPSRDSDSEPFPPGTQSLIQPIDGMKMEKSPLREEAKKFWHHFMFRKTPASQGVILPIKSHEVHWETCRTVPFSQTITHEGCEKVVVQNNLCFGKCGSVHFPGAAQHSHTSASHCLPAKFTTMHLPLNCTELSSVIKVVMLVEECQCKVKTEHEDGHILHAGSQDSFIPGVSA
stoichiometry N (SEC): 2

Kd [11]: 9.8 ± 0.9 nM | koff [11]: 0.0012 s⁻¹ | kon [11]: 130000 M⁻¹ s⁻¹ | Kd [12]: 17.3 ± 0.8 nM | koff [12]: 0.0028 s⁻¹ | kon [12]: 160000 M⁻¹ s⁻¹
B5: Recombinant human BMP-7 (ligand, UniProt P18075 293-431, looked up)
chain: STGSKQRSQNRSKTPKNQEALRMANVAENSSSDQRQACKKHELYVSFRDLGWQDWIIAPEGYAAYYCEGECAFPLNSYMNATNHAIVQTLVHFINPETVPKPCCAPTQLNAISVLYFDDSSNVILKKYRNMVVRACGCH
